Test results: the Human Domainome abundance scans (Beltran et al. 2025)
± gives the uncertainty stated by the source.

B1: Intersectin-1, residues 909 to 971; numbered along this chain, Q15811 (parent)
chain: QGEKVEGLQAQALYPWRAKKDNHLNFNKNDVITVLEQQDMWWFGEVQGQKGWFPKSYVKLISG

Variants of: B1
Assay: abundance fitness (aPCA) (normalised: wild type 0, dead -1); higher = more abundant; growth selection in yeast, the domain comes from the species named
Conditions: Homo sapiens

Variant	abundance fitness
QGEKVEGLQAQALYPWRAKKDNHLNFNKNDGITVLEQQDMWWFGEVQGQKGWFPKSYVKLISG [V31G]	-0.476 ± 0.038
QGEKVEGLQAQALYPWRAKKDNHLNFNKNDFITVLEQQDMWWFGEVQGQKGWFPKSYVKLISG [V31F]	-0.022 ± 0.033
QGEKVEGLQAQALYPWRAKKDNHLNFNKNDDITVLEQQDMWWFGEVQGQKGWFPKSYVKLISG [V31D]	-0.484 ± 0.075
QGEKVEGLQAQALYPWRAKKDNHLNFNKFDVITVLEQQDMWWFGEVQGQKGWFPKSYVKLISG [N29F]	-0.196 ± 0.36
QGEKVEGLQAQALYPWRAKKDNHLNFNKSDVITVLEQQDMWWFGEVQGQKGWFPKSYVKLISG [N29S]	-0.128 ± 0.091
QGEKVEGLQAQALYPWRAKKDNHLNFNKGDVITVLEQQDMWWFGEVQGQKGWFPKSYVKLISG [N29G]	-0.031 ± 0.067
QGEKVEGLQAQALYPWRAKKDNHLNFNKLDVITVLEQQDMWWFGEVQGQKGWFPKSYVKLISG [N29L]	-0.269 ± 0.075
QGEKVEGLQAQALYPWRAKKDNHLNFNKMDVITVLEQQDMWWFGEVQGQKGWFPKSYVKLISG [N29M]	-0.034 ± 0.12
QGEKVEGLQAQALYPWRAKKDNHLNFNKCDVITVLEQQDMWWFGEVQGQKGWFPKSYVKLISG [N29C]	-0.185 ± 0.12
QGEKVEGLQAQALYPWRAKKDNHLNFNKWDVITVLEQQDMWWFGEVQGQKGWFPKSYVKLISG [N29W]	-0.345 ± 0.1
QGEKVEGLQAQALYPWRAKKDNHLNFNKTDVITVLEQQDMWWFGEVQGQKGWFPKSYVKLISG [N29T]	-0.311 ± 0.17
QGEKVEGLQAQALYPWRAKKDNHLNFNKADVITVLEQQDMWWFGEVQGQKGWFPKSYVKLISG [N29A]	-0.113 ± 0.11
QGEKVEGLQAQALYPWRAKKDNHLNFNKDDVITVLEQQDMWWFGEVQGQKGWFPKSYVKLISG [N29D]	-0.081 ± 0.13
QGEKVEGLQAQALYPWRAKKDNHLNFNKHDVITVLEQQDMWWFGEVQGQKGWFPKSYVKLISG [N29H]	0.104 ± 0.15
QGEKVEGLQAQALYPWRAKKDNHLNFNKQDVITVLEQQDMWWFGEVQGQKGWFPKSYVKLISG [N29Q]	-0.041 ± 0.19
QGEKVEGLQAQALYPWRAKKDNHLNFNKRDVITVLEQQDMWWFGEVQGQKGWFPKSYVKLISG [N29R]	-0.172 ± 0.075
QGEKVEGLQAQALYPWRAKKDNHLNFNKKDVITVLEQQDMWWFGEVQGQKGWFPKSYVKLISG [N29K]	-0.324 ± 0.3
QGEKVEGLQAQALYPWRAKKDNHLNFNKPDVITVLEQQDMWWFGEVQGQKGWFPKSYVKLISG [N29P]	-0.728 ± 0.48
QGEKVEGLQAQALYPWRAKKDNHLNFNKYDVITVLEQQDMWWFGEVQGQKGWFPKSYVKLISG [N29Y]	-0.282 ± 0.38
QGEKVEGLQAQALYPWRAKKDNHLNFNKEDVITVLEQQDMWWFGEVQGQKGWFPKSYVKLISG [N29E]	-0.024 ± 0.18
QGEKVEGLQAQALYPWRAKKDNHLNFNKNTVITVLEQQDMWWFGEVQGQKGWFPKSYVKLISG [D30T]	-0.15 ± 0.039
QGEKVEGLQAQALYPWRAKKDNHLNFNKNVVITVLEQQDMWWFGEVQGQKGWFPKSYVKLISG [D30V]	-0.357 ± 0.035

Variant	abundance fitness
QGEKVEGLQAQALYPWRAKKDNHLNFNKNEVITVLEQQDMWWFGEVQGQKGWFPKSYVKLISG [D30E]	-0.089 ± 0.04
QGEKVEGLQAQALYPWRAKKDNHLNFNKNNVITVLEQQDMWWFGEVQGQKGWFPKSYVKLISG [D30N]	-0.396 ± 0.049
QGEKVEGLQAQALYPWRAKKDNHLNFNKNPVITVLEQQDMWWFGEVQGQKGWFPKSYVKLISG [D30P]	-0.759 ± 0.069
QGEKVEGLQAQALYPWRAKKDNHLNFNKNMVITVLEQQDMWWFGEVQGQKGWFPKSYVKLISG [D30M]	-0.252 ± 0.051
QGEKVEGLQAQALYPWRAKKDNHLNFNKNRVITVLEQQDMWWFGEVQGQKGWFPKSYVKLISG [D30R]	-0.778 ± 0.049
QGEKVEGLQAQALYPWRAKKDNHLNFNKNYVITVLEQQDMWWFGEVQGQKGWFPKSYVKLISG [D30Y]	-0.469 ± 0.069
QGEKVEGLQAQALYPWRAKKDNHLNFNKNGVITVLEQQDMWWFGEVQGQKGWFPKSYVKLISG [D30G]	-0.75 ± 0.055
QGEKVEGLQAQALYPWRAKKDNHLNFNKNCVITVLEQQDMWWFGEVQGQKGWFPKSYVKLISG [D30C]	-0.166 ± 0.07
QGEKVEGLQAQALYPWRAKKDNHLNFNKNFVITVLEQQDMWWFGEVQGQKGWFPKSYVKLISG [D30F]	-0.742 ± 0.054
QGEKVEGLQAQALYPWRAKKDNHLNFNKNHVITVLEQQDMWWFGEVQGQKGWFPKSYVKLISG [D30H]	-0.511 ± 0.11
QGEKVEGLQAQALYPWRAKKDNHLNFNKNLVITVLEQQDMWWFGEVQGQKGWFPKSYVKLISG [D30L]	-0.751 ± 0.042
QGEKVEGLQAQALYPWRAKKDNHLNFNKNWVITVLEQQDMWWFGEVQGQKGWFPKSYVKLISG [D30W]	-0.331 ± 0.054
QGEKVEGLQAQALYPWRAKKDNHLNFNKNQVITVLEQQDMWWFGEVQGQKGWFPKSYVKLISG [D30Q]	-0.036 ± 0.048
QGEKVEGLQAQALYPWRAKKDNHLNFNKNKVITVLEQQDMWWFGEVQGQKGWFPKSYVKLISG [D30K]	-0.783 ± 0.086
QGEKVEGLQAQALYPWRAKKDNHLNFNKNIVITVLEQQDMWWFGEVQGQKGWFPKSYVKLISG [D30I]	-0.677 ± 0.054
QGEKVEGLQAQALYPWRAKKDNHLNFNKNSVITVLEQQDMWWFGEVQGQKGWFPKSYVKLISG [D30S]	-0.259 ± 0.037
QGEKVEGLQAQALYPWRAKKDNHLPFNKNDVITVLEQQDMWWFGEVQGQKGWFPKSYVKLISG [N25P]	-0.451 ± 0.37
QGEKVEGLQAQALYPWRAKKDNHLRFNKNDVITVLEQQDMWWFGEVQGQKGWFPKSYVKLISG [N25R]	-0.177 ± 0.13
QGEKVEGLQAQALYPWRAKKDNHLWFNKNDVITVLEQQDMWWFGEVQGQKGWFPKSYVKLISG [N25W]	-0.462 ± 0.17
QGEKVEGLQAQALYPWRAKKDNHLVFNKNDVITVLEQQDMWWFGEVQGQKGWFPKSYVKLISG [N25V]	-0.207 ± 0.076
QGEKVEGLQAQALYPWRAKKDNHLSFNKNDVITVLEQQDMWWFGEVQGQKGWFPKSYVKLISG [N25S]	-0.074 ± 0.14
